Laboratory results taken from publication PMC2882879 (Biochemistry, 2010).

Key:
LRP6 (Homo sapiens) = LRP6 (Homo sapiens) (UniProt O75581); assay: solid phase enzyme-linked binding assay; details: cited from earlier work
[1] = biological target: human low-density lipoprotein receptor-related protein-5 on stably transfected ldl-7 (LDLR-deficient CHO) … (human, UniProt O75197 32-1615); assay: radioligand binding
Sequence of human low-density lipoprotein receptor-related protein-5 on stably transfected ldl-7 (LDLR-deficient CHO) … (O75197 32-1615): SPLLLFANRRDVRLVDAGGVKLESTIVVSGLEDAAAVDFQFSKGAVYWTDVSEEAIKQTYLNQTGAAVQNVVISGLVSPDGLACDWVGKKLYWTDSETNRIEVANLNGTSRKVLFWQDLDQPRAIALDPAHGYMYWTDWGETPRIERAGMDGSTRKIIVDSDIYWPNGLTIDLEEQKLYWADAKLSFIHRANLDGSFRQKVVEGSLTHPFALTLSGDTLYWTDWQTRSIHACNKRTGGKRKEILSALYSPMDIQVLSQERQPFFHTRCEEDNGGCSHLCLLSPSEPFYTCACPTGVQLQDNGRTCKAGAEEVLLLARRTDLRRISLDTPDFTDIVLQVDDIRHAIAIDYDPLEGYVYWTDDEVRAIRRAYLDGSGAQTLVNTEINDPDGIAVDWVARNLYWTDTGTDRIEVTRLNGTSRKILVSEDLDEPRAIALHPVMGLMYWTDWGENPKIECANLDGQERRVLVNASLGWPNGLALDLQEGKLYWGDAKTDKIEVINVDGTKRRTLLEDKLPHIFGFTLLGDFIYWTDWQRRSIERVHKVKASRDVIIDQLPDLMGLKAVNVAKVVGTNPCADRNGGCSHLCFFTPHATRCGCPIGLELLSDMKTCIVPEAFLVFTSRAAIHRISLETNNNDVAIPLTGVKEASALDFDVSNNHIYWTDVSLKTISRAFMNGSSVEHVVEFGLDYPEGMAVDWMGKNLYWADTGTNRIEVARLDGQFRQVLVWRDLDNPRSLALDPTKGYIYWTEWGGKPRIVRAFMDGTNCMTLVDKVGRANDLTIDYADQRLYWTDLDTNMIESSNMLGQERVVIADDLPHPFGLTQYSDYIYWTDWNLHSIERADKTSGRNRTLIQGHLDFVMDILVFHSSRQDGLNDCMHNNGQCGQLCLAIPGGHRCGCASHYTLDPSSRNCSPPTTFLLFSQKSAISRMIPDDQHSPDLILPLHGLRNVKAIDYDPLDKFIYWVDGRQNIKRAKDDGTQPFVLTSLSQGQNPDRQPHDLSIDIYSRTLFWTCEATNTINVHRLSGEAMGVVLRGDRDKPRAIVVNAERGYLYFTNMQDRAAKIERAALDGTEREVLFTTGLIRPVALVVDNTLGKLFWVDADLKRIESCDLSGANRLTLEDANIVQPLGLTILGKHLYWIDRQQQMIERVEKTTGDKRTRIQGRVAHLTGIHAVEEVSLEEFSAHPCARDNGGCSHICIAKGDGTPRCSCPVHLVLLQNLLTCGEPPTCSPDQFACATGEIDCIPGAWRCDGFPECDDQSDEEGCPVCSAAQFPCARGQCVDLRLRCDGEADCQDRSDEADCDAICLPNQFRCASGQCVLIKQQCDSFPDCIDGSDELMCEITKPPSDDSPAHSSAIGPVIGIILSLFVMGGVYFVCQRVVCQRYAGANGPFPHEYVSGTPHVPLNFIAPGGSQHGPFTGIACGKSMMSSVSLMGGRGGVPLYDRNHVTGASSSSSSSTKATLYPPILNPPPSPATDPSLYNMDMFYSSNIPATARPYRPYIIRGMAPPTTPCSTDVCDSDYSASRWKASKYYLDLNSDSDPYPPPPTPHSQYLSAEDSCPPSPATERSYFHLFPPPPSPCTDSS

Sequence of LRP6 (Homo sapiens) (O75581 20-1370): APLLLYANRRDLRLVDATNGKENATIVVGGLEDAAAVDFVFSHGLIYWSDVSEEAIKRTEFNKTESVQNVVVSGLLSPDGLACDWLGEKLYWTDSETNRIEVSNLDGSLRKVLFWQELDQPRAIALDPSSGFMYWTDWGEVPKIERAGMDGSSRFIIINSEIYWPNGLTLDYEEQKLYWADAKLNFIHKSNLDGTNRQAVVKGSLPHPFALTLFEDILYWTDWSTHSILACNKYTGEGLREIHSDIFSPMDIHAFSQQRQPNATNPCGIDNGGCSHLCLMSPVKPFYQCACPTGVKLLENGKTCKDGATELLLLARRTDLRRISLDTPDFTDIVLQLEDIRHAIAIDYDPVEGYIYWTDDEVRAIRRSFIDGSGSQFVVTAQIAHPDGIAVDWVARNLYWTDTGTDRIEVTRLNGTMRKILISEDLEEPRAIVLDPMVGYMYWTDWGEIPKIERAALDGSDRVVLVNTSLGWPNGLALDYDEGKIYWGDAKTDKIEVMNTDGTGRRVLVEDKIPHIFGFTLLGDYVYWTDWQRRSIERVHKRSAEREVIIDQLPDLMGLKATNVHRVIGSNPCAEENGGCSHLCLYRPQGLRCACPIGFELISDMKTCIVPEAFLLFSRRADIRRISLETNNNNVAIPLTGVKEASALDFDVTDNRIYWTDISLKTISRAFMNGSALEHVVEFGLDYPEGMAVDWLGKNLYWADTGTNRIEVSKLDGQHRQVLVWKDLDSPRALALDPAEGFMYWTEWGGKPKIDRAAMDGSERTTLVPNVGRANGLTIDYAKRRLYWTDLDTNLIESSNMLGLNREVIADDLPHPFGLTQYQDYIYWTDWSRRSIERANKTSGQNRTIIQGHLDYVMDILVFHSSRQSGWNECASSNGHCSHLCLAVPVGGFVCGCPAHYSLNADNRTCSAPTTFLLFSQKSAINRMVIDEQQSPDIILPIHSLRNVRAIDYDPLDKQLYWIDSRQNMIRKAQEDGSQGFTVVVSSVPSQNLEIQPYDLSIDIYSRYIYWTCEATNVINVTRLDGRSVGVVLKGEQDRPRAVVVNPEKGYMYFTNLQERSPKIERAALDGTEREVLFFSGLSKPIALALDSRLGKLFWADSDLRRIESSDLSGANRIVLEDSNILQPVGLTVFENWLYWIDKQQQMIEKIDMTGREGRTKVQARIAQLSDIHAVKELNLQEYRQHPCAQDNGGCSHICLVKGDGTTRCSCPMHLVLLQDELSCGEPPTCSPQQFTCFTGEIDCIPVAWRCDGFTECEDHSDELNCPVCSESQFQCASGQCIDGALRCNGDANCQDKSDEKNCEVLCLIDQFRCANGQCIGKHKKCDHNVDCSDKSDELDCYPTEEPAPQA

In the case of Rspo1 (from UniProt Q2MKA7), the Kd (LRP6 (Homo sapiens)) is given as 1.2 nM.

B1: recombinant mouse Mesd protein (natural protein, UniProt Q9ERE7 30-224, looked up)
chain: ADTPGEATPPPRKKKDIRDYNDADMARLLEQWEKDDDIEEGDLPEHKRPSAPIDFSKLDPGKPESILKMTKKGKTLMMFVTVSGNPTEKETEEITSLWQGSLFNANYDVQRFIVGSDRAIFMLRDGSYAWEIKDFLVSQDRCAEVTLEGQMYPGKGGGSKEKNKTKPEKAKKKEGDPKPRASKEDNRAGSRREDL
modifications: 125I-iodinated (IODO-GEN method) where used as radioligand; unlabelled where used as competitor
In the case of B1, the Kd [1] is reported as 3.3 nM.
